# Assay results: patent publication US20260125451A1 (JIANGSU HENGRUI PHARMACEUTICALS, published 2026)
# Like-named read-outs stand apart in the source and are kept apart here.
# T1: APRIL (Acro Biosystems, Cat: APL-H52D1) (UniProt O75888 115-250, limits assumed)
# T1 construct: also called ARPIL; A proliferation-inducing ligand
# T1 sequence (looked up): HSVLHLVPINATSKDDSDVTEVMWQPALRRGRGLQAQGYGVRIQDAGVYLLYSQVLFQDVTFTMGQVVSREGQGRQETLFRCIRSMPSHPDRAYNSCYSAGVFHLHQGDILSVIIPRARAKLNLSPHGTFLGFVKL
# T2: recombinant human ARPIL (R&D cat: 5860-AP-010/CF) (human, UniProt O75888 105-250, limits assumed)
# T2 sequence (looked up): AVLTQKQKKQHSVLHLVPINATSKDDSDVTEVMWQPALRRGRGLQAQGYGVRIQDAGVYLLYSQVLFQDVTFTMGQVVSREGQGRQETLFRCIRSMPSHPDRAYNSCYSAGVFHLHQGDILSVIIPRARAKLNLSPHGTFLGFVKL
# B1: B575701 (Fc fusion)
# chain: LSCRKEQGKFYDHLLRDCISCASICGQHPKQCAYFCENKLRSPGMLQMAGQCSQNEYFDSLLHACIPCQLRCSSNTPPLTCQRYCNASVTNSVKGTNADKTHTCPPCPAPEAEGAPSVFLFPPKPKDTLMISRTPEVTCVVVDVSHEDPEVKFNWYVDGVEVHNAKTKPREEQYNSTYRVVSVLTVLHQDWLNGKEYKCKVSNKALPSSIEKTISKAKGQPREPQVYTLPPSRDELTKNQVSLTCLVKGFYPSDIAVEWESNGQPENNYKTTPPVLDSDGSFFLYSKLTVDKSRWQQGNVFSCSVMHEALHNHYTQKSLSLSPGK
# notes: TACI-BCMA fusion protein; also called TACI-d2-BCMA-ECD-Fc
# B2: B575703 (Fc fusion)
# chain: SRVDQEERFPQGLWTGVAMRSCPEEQYWDPLLGTCMSCKTICNHQSQRTCAAFCRSLSCRKEQGKFYDHLLRDCISCASICGQHPKQCAYFCENKLRSPVNLPPELMLQMAGQCSQNEYFDSLLHACIPCQLRCSSNTPPLTCQRYCNASVTNSVKGTNADKTHTCPPCPAPEAEGAPSVFLFPPKPKDTLMISRTPEVTCVVVDVSHEDPEVKFNWYVDGVEVHNAKTKPREEQYNSTYRVVSVLTVLHQDWLNGKEYKCKVSNKALPSSIEKTISKAKGQPREPQVYTLPPSRDELTKNQVSLTCLVKGFYPSDIAVEWESNGQPENNYKTTPPVLDSDGSFFLYSKLTVDKSRWQQGNVFSCSVMHEALHNHYTQKSLSLSPGK
# notes: TACI-BCMA fusion protein; also called TACI-T2-BCMA-ECD-Fc
# B3: Telitacicept (RCT-18) (Fc fusion)
# chain: SRVDQEERFPQGLWTGVAMRSCPEEQYWDPLLGTCMSCKTICNHQSQRTCAAFCRSLSCRKEQGKFYDHLLRDCISCASICGQHPKQCAYFCENKLRSPVNLPPELDKTHTCPPCPAPEAEGAPSVFLFPPKPKDTLMISRTPEVTCVVVDVSHEDPEVKFNWYVDGVEVHNAKTKPREEQYNSTYRVVSVLTVLHQDWLNGKEYKCKVSNKALPSSIEKTISKAKGQPREPQVYTLPPSRDELTKNQVSLTCLVKGFYPSDIAVEWESNGQPENNYKTTPPVLDSDGSFFLYSKLTVDKSRWQQGNVFSCSVMHEALHNHYTQKSLSLSPGK
# notes: Positive control, TACI-Fc
# B4: B613301 (other)
# heavy: EVQLVQSGAEVKKPGESLKISCKGSGYIFTNYWIAWVRQMPGKGLESMGIIYPGDSDIRYSPSFQGQVTISADKSITTAYLQWSSLKASDTAMYYCARHDIEGFDYWGRGTLVTVSSASTKGPSVFPLAPSSKSTSGGTAALGCLVKDYFPEPVTVSWNSGALTSGVHTFPAVLQSSGLYSLSSVVTVPSSSLGTQTYICNVNHKPSNTKVDKRVEPKSCDKTHTCPPCPAPEFEGGPSVFLFPPKPKDTLMISRTPEVTCVVVDVSHEDPEVKFNWYVDGVEVHNAKTKPREEQYNSTYRVVSVLTVLHQDWLNGKEYKCKVSNKALPASIEKTISKAKGQPREPQVYTLPPSRDELTKNQVSLTCLVKGFYPSDIAVEWESNGQPENNYKTTPPVLDSDGSFFLYSKLTVDKSRWQQGNVFSCSVMHEALHNHYTQKSLSLSPGK
# light: EIVLTQSPGTLSLSPGERATLSCRASQSVSSSFFAWYQQKPGQAPRLLIYGASSRATGIPDRLSGSGSGTDFTLTITRLEPEDFAVYYCQQYDSSAITFGQGTRLEIKRTVAAPSVFIFPPSDEQLKSGTASVVCLLNNFYPREAKVQWKVDNALQSGNSQESVTEQDSKDSTYSLSSTLTLSKADYEKHKVYACEVTHQGLSSPVTKSFNRGECGGGGSGGGGSLSCRKEQGKFYDHLLRDCISCASICGQHPKQCAYFCENKLRSPGMLQMAGQCSQNEYFDSLLHACIPCQLRCSSNTPPLTCQRYCNASVTNSVKGTNA
# notes: Fusion protein of anifrolumab and TACI-BCMA
# B5: B613302 (other)
# heavy: EVQLVQSGAEVKKPGESLKISCKGSGYIFTNYWIAWVRQMPGKGLESMGIIYPGDSDIRYSPSFQGQVTISADKSITTAYLQWSSLKASDTAMYYCARHDIEGFDYWGRGTLVTVSSASTKGPSVFPLAPSSKSTSGGTAALGCLVKDYFPEPVTVSWNSGALTSGVHTFPAVLQSSGLYSLSSVVTVPSSSLGTQTYICNVNHKPSNTKVDKRVEPKSCDKTHTCPPCPAPEFEGGPSVFLFPPKPKDTLMISRTPEVTCVVVDVSHEDPEVKFNWYVDGVEVHNAKTKPREEQYNSTYRVVSVLTVLHQDWLNGKEYKCKVSNKALPASIEKTISKAKGQPREPQVYTLPPSRDELTKNQVSLTCLVKGFYPSDIAVEWESNGQPENNYKTTPPVLDSDGSFFLYSKLTVDKSRWQQGNVFSCSVMHEALHNHYTQKSLSLSPGK
# light: EIVLTQSPGTLSLSPGERATLSCRASQSVSSSFFAWYQQKPGQAPRLLIYGASSRATGIPDRLSGSGSGTDFTLTITRLEPEDFAVYYCQQYDSSAITFGQGTRLEIKRTVAAPSVFIFPPSDEQLKSGTASVVCLLNNFYPREAKVQWKVDNALQSGNSQESVTEQDSKDSTYSLSSTLTLSKADYEKHKVYACEVTHQGLSSPVTKSFNRGECGGGGSGGGGSMLQMAGQCSQNEYFDSLLHACIPCQLRCSSNTPPLTCQRYCNASVTNSVKGTNALSCRKEQGKFYDHLLRDCISCASICGQHPKQCAYFCENKLRSPG
# notes: as for B4
# B6: B575702 (Fc fusion)
# chain: MLQMAGQCSQNEYFDSLLHACIPCQLRCSSNTPPLTCQRYCNASVTNSVKGTNALSCRKEQGKFYDHLLRDCISCASICGQHPKQCAYFCENKLRSPGDKTHTCPPCPAPEAEGAPSVFLFPPKPKDTLMISRTPEVTCVVVDVSHEDPEVKFNWYVDGVEVHNAKTKPREEQYNSTYRVVSVLTVLHQDWLNGKEYKCKVSNKALPSSIEKTISKAKGQPREPQVYTLPPSRDELTKNQVSLTCLVKGFYPSDIAVEWESNGQPENNYKTTPPVLDSDGSFFLYSKLTVDKSRWQQGNVFSCSVMHEALHNHYTQKSLSLSPGK
# notes: TACI-BCMA fusion protein; also called BCMA-ECD-TACI-d2-Fc
# B7: B575704 (Fc fusion)
# chain: MLQMAGQCSQNEYFDSLLHACIPCQLRCSSNTPPLTCQRYCNASVTNSVKGTNASRVDQEERFPQGLWTGVAMRSCPEEQYWDPLLGTCMSCKTICNHQSQRTCAAFCRSLSCRKEQGKFYDHLLRDCISCASICGQHPKQCAYFCENKLRSPVNLPPELDKTHTCPPCPAPEAEGAPSVFLFPPKPKDTLMISRTPEVTCVVVDVSHEDPEVKFNWYVDGVEVHNAKTKPREEQYNSTYRVVSVLTVLHQDWLNGKEYKCKVSNKALPSSIEKTISKAKGQPREPQVYTLPPSRDELTKNQVSLTCLVKGFYPSDIAVEWESNGQPENNYKTTPPVLDSDGSFFLYSKLTVDKSRWQQGNVFSCSVMHEALHNHYTQKSLSLSPGK
# notes: TACI-BCMA fusion protein; also called BCMA-ECD-TACI-T2-Fc
# What was measured:
# [1] = target: T3, BAFF (PeproTech, Cat: 310-13) (UniProt Q9Y275 134-285); assay: ELISA, BAFF coated, anti-human Fc-HRP
# [2] = target: T3, BAFF (PeproTech, Cat: 310-13); assay: ELISA, BAFF coated, anti-human Fc-HRP, OD450
# Procedure: (§1) The capabilities of TACI-BCMA fusion proteins (B575701, B575702, B575703, and B575704) to bind to BAFF and APRIL were assessed by ELISA as follows:
# (§2) BAFF (PeproTech, Cat: 310-13) or ARPIL (Acro Biosystems, Cat: APL-H52D1) was diluted to 1 μg/mL with PBS, and a 96-well plate (Costar, Cat: 3590) was coated with the dilution overnight at 4° C. The plate was washed with PBST and blocked with Blocking Buffer (PBST containing 1% BSA) at 37° C. for 1 h. The plate was tapped. The test antibodies were diluted with Blocking Buffer. Incubation was performed at 37° C. for 1.5 h. The plate was washed with PBST. An HRP-mouse anti-human Fc antibody (GenScript, Cat: A01854-200) was diluted with Blocking Buffer. Incubation was performed at 37° C. for 40 min. The plate was washed with PBST. 100 μL of TMB substrate solution (Biopanda, Cat: TMB-S-003) was added, and color development was performed at 37° C. for 3 min. 100 μL of ELISA stop solution (Solarbio, Cat: C1058) was added. OD450 was measured.
# [3] = target: T1, APRIL (Acro Biosystems, Cat: APL-H52D1); assay: ELISA, APRIL coated, anti-human Fc-HRP, OD450
# Procedure: as §1, §2
# [4] = target: recombinant human BAFF (R&D cat: 7537-BF-025/CF) (human, UniProt Q9Y275 134-285, limits assumed); assay: cell-based or functional assay
# [5] = target: T2, recombinant human ARPIL (R&D cat: …); assay: cell-based or functional assay
# [6] = target: T1, APRIL (Acro Biosystems, Cat: APL-H52D1); assay: ELISA, APRIL coated, anti-human Fc-HRP, OD450; remark: listed apart in the source
# Procedure: The capabilities of B613301, B613302, and B613303, which are fusion proteins of anifrolumab and TACI-BCMA, to bind to BAFF and APRIL were assessed by ELISA as follows:
# as §2
# [7] = target: T1, APRIL (Acro Biosystems, Cat: APL-H52D1); assay: ELISA, APRIL coated, anti-human Fc-HRP, OD450; remark: listed apart in the source
# Procedure: The capabilities of fusion proteins B606401, B637302, B746201, and B805201 to bind to BAFF and APRIL were assessed by ELISA as follows:
# as §2, with “plate” for “plate (Costar, Cat: 3590)”
# The EC₅₀ value for the capability of B637302 to bind to APRIL decreased to 1/7 to ⅙ of that of telitacicept.
EC50 relative to that of telitacicept [1] [ratio],Emax [2] [nM],Emax [3] [nM],Emax [6] [nM],also measured,Binder
0.5,2.31,2.69,,,B1
0.5,2.43,2.78,,,B2
,2.28,2.62,2.5,"Flow cytometry proliferating B cell proportion (%), mean, BAFF-induced, drug at 10 nM [4]: 36%; Flow cytometry proliferating B cell proportion (%), mean, BAFF-induced, drug at 100 nM [4]: 30.7%; Flow cytometry proliferating B cell proportion (%), mean, BAFF-induced, drug at 1000 nM [4]: 24.3%; Flow cytometry proliferating B cell proportion (%), mean, APRIL-induced, drug at 4.12 nM [5]: 48.1%; Flow cytometry proliferating B cell proportion (%), mean, APRIL-induced, drug at 12.35 nM [5]: 49.2%; Flow cytometry proliferating B cell proportion (%), mean, APRIL-induced, drug at 37.04 nM [5]: 50.1%; Flow cytometry proliferating B cell proportion (%), mean, APRIL-induced, drug at 111.11 nM [5]: 50.3%; Flow cytometry proliferating B cell proportion (%), mean, APRIL-induced, drug at 333.33 nM [5]: 49.1%; Flow cytometry proliferating B cell proportion (%), mean, APRIL-induced, drug at 1000.00 nM [5]: 46.3%; Emax [7]: 2.98 nM",B3
,,,2.49,,B4
,,,2.52,,B5
0.25,2.24,2.64,,,B6
0.25,2.29,2.68,,,B7
